From the supplement of paper PMC10567573

B1: SMG5 (parent)
chain: TRKLSPGKKRCKDIKRLLVNFMYL

Variants of: B1
Experiment: protein stability index of a GFP-peptide fusion (GPS, HEK-293T) (PSI 1-6); higher = more stable
Conditions: c terminus: a fixed tail appended
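Note: lentivirally expressed fusions sorted by FACS into six bins by GFP to DsRed ratio, PSI derived from sequencing read proportions per bin multiplied by bin number.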

Variant	protein stability index
TRKLSPGKKLCKDIKRLLVNFMYL [R10L]	3.06
TRKLSPGKKNCKDIKRLLVNFMYL [R10N]	3.09
TRKLSPGKKKCKDIKRLLVNFMYL [R10K]	2.07
TRKLSPGKKHCKDIKRLLVNFMYL [R10H]	2.2
TRKLSPGKKGCKDIKRLLVNFMYL [R10G]	3.25
TRKLSPGKKSCKDIKRLLVNFMYL [R10S]	2.03
TRKLSPGKKYCKDIKRLLVNFMYL [R10Y]	3.14
TRKLSPGKKDCKDIKRLLVNFMYL [R10D]	2.02
TRKLSPGKKCCKDIKRLLVNFMYL [R10C]	2.23
TRKLSPGKKPCKDIKRLLVNFMYL [R10P]	3.4
TRKLSPGKKQCKDIKRLLVNFMYL [R10Q]	3
TRKLSPGKKECKDIKRLLVNFMYL [R10E]	2.67
TRKLSPGKKRCADIKRLLVNFMYL [K12A]	3.77
TRKLSPGKKRCGDIKRLLVNFMYL [K12G]	2.95
TRKLSPGKKRCEDIKRLLVNFMYL [K12E]	4.79
TRKLSPGKKRCCDIKRLLVNFMYL [K12C]	3.37
TRKLSPGKKRCDDIKRLLVNFMYL [K12D]	1.41
TRKLSPGKKRCFDIKRLLVNFMYL [K12F]	2.73
TRKYSPGKKRCKDIKRLLVNFMYL [L4Y]	2.63
TRKTSPGKKRCKDIKRLLVNFMYL [L4T]	1.62
TRKSSPGKKRCKDIKRLLVNFMYL [L4S]	1.47
TRKLTPGKKRCKDIKRLLVNFMYL [S5T]	1.02
TRKLFPGKKRCKDIKRLLVNFMYL [S5F]	4.07
TRKLQPGKKRCKDIKRLLVNFMYL [S5Q]	2.62

Variant	protein stability index
TRKLLPGKKRCKDIKRLLVNFMYL [S5L]	1.55
TRKLGPGKKRCKDIKRLLVNFMYL [S5G]	2.7
TRKLDPGKKRCKDIKRLLVNFMYL [S5D]	2.41
TRKLKPGKKRCKDIKRLLVNFMYL [S5K]	4.05
TRKLPPGKKRCKDIKRLLVNFMYL [S5P]	2.54
TRKLSPGKKRAKDIKRLLVNFMYL [C11A]	3.02
TRKLSPGKKRVKDIKRLLVNFMYL [C11V]	1.4
TRKLSPGKKRGKDIKRLLVNFMYL [C11G]	1.42
TRKLSPGKKREKDIKRLLVNFMYL [C11E]	2.58
TRKLSPGKKRDKDIKRLLVNFMYL [C11D]	1.79
TRKLSPGKKRSKDIKRLLVNFMYL [C11S]	1.4
TRKLSPGKKRFKDIKRLLVNFMYL [C11F]	3.81
TRKLSPGKKRWKDIKRLLVNFMYL [C11W]	3.27
TRKLSPGKKRIKDIKRLLVNFMYL [C11I]	4.05
TRKLSPGKKRTKDIKRLLVNFMYL [C11T]	1.59
TRKLSPGKKRLKDIKRLLVNFMYL [C11L]	2.46
TRKLSPGKKRQKDIKRLLVNFMYL [C11Q]	1.39
TRKLSPGKKRKKDIKRLLVNFMYL [C11K]	2
TRKLSPGKKRMKDIKRLLVNFMYL [C11M]	1.93
TRKLSPGKKRYKDIKRLLVNFMYL [C11Y]	1.91
TRKLSPGKKRPKDIKRLLVNFMYL [C11P]	2.26
TRKLSPGKKRHKDIKRLLVNFMYL [C11H]	1.58
TRKLSPLKKRCKDIKRLLVNFMYL [G7L]	4.07
TRKLSPMKKRCKDIKRLLVNFMYL [G7M]	3.1

Variant	protein stability index
TRKLSPNKKRCKDIKRLLVNFMYL [G7N]	2.08
TRKLSPSKKRCKDIKRLLVNFMYL [G7S]	2.17
TRKLSPQKKRCKDIKRLLVNFMYL [G7Q]	1.86
TRKLSPRKKRCKDIKRLLVNFMYL [G7R]	2.47
TRKLSPFKKRCKDIKRLLVNFMYL [G7F]	2.24
TRKLSPEKKRCKDIKRLLVNFMYL [G7E]	1.97
TRKLSPPKKRCKDIKRLLVNFMYL [G7P]	1.96
TRKLSPTKKRCKDIKRLLVNFMYL [G7T]	2.22
TRKLSPVKKRCKDIKRLLVNFMYL [G7V]	2.47
TRKLSPIKKRCKDIKRLLVNFMYL [G7I]	2.87
TRKLSPKKKRCKDIKRLLVNFMYL [G7K]	3.32
TRKLSPAKKRCKDIKRLLVNFMYL [G7A]	2.87
TRKLSNGKKRCKDIKRLLVNFMYL [P6N]	1.9
TRKLSDGKKRCKDIKRLLVNFMYL [P6D]	2.55
TRKLSVGKKRCKDIKRLLVNFMYL [P6V]	3.45
TRKLSHGKKRCKDIKRLLVNFMYL [P6H]	2.4
TRKLSGGKKRCKDIKRLLVNFMYL [P6G]	2.69
TRKLSQGKKRCKDIKRLLVNFMYL [P6Q]	3.24
TRKLSTGKKRCKDIKRLLVNFMYL [P6T]	2.59
TRKLSYGKKRCKDIKRLLVNFMYL [P6Y]	3.31
TRKLSSGKKRCKDIKRLLVNFMYL [P6S]	2.1
TRKLSLGKKRCKDIKRLLVNFMYL [P6L]	2.45
TRKLSPGKCRCKDIKRLLVNFMYL [K9C]	2.14
TRKLSPGKGRCKDIKRLLVNFMYL [K9G]	1.4

Variant	protein stability index
TRKLSPGKMRCKDIKRLLVNFMYL [K9M]	2.31
TRKLSPGKVRCKDIKRLLVNFMYL [K9V]	2.04
TRKLSPGKYRCKDIKRLLVNFMYL [K9Y]	2.15
TRKLSPGKSRCKDIKRLLVNFMYL [K9S]	2.86
TRKLSPGKNRCKDIKRLLVNFMYL [K9N]	4.29
TRKLSPGKPRCKDIKRLLVNFMYL [K9P]	2.4
TRKLSPGKFRCKDIKRLLVNFMYL [K9F]	3
TRKLSPGKERCKDIKRLLVNFMYL [K9E]	2.32
TRKLSPGKTRCKDIKRLLVNFMYL [K9T]	2.64
TRKLSPGKDRCKDIKRLLVNFMYL [K9D]	3.59
TRKLSPGKLRCKDIKRLLVNFMYL [K9L]	3.19
TRKLSPGRKRCKDIKRLLVNFMYL [K8R]	2.2
TRKLSPGLKRCKDIKRLLVNFMYL [K8L]	2.75
TRKLSPGEKRCKDIKRLLVNFMYL [K8E]	3.52
TRKLSPGNKRCKDIKRLLVNFMYL [K8N]	1.74
TRKLSPGHKRCKDIKRLLVNFMYL [K8H]	3.49
TRKLSPGSKRCKDIKRLLVNFMYL [K8S]	1.98
TRKLSPGCKRCKDIKRLLVNFMYL [K8C]	3.19
TRKLSPGTKRCKDIKRLLVNFMYL [K8T]	2.64
TRKLSPGGKRCKDIKRLLVNFMYL [K8G]	1.05
TRKLSPGWKRCKDIKRLLVNFMYL [K8W]	2.79
TRKLSPGFKRCKDIKRLLVNFMYL [K8F]	4.35
